Laboratory results taken from publication PMC10418163 (bioRxiv, 2024).

How the values were obtained:
[1] = target: Pseudomonas aeruginosa PhuR refolded from inclusion bodies (Pseudomonas aeruginosa PAO1, UniProt Q9HV88); assay: SEC
[2] = target: Pseudomonas aeruginosa PhuR, natively expressed (purified from E. coli outer membranes, heme-bound) (Pseudomonas aeruginosa PAO1, UniProt Q9HV88); assay: ELISA

B1: synthetic antibody sAB11 (Fab, V domains shown)
VH: EVQLVESGGGLVQPGGSLRLSCAASGFNFYYYSIHWVRQAPGKGLEWVASISPYYGSTYYADSVKGRFTISADTSKNTAYLQMNSLRAEDTAVYYCARSMNWYYSSPYGMSQGMDYWGQGTLVTVSS
VL: DIQMTQSPSSLSASVGDRVTITCRASQSVSSAVAWYQQKPGKAPKLLIYSASSLYSGVPSRFSGSRSGTDFTLTISSLQPEDFATYYCQQGSSSPLTFGQGTKVEIK
For B1, the binding result [1] was “binds” and the EC50 [2] was ~9 nM.
